B1: Rco1 (natural protein, yeast, UniProt Q04779 1-684, looked up)
chain: MDTSKKDTTRSPSHSNSSSPSSSSLSSSSSKEKKRPKRLSSQNVNYDLKRRKIITSEGIERSFKNEHSNLAVEDNIPEEEPKELLEKDSKGNIIKLNEPSTISEDSKVSVTGLPLNKGPSEKIKRESLWNYRKNLGGQSNNSEMTLVPSKRFTQVPKNFQDLNRNDLKTFLTENMTEESNIRSTIGWNGDIINRTRDREPESDRDNKKLSNIRTKIILSTNATYDSKSKLFGQNSIKSTSNASEKIFRDKNNSTIDFENEDFCSACNQSGSFLCCDTCPKSFHFLCLDPPIDPNNLPKGDWHCNECKFKIFINNSMATLKKIESNFIKQNNNVKIFAKLLFNIDSHNPKQFQLPNYIKETFPAVKTGSRGQYSDENDKIPLTDRQLFNTSYGQSITKLDSYNPDTHIDSNSGKFLICYKCNQTRLGSWSHPENSRLIMTCDYCQTPWHLDCVPRASFKNLGSKWKCPLHSPTKVYKKIHHCQEDNSVNYKVWKKQRLINKKNQLYYEPLQKIGYQNNGNIQIIPTTSHTDYDFNQDFKITQIDENSIKYDFFDKIYKSKMVQKRKLFQFQESLIDKLVSNGSQNGNSEDNMVKDIASLIYFQVSNNDKSSNNKSASKSNNLRKLWDLKELTNVVVPNELDSIQFNDFSSDEIKHLLYLKKIIESKPKEELLKFLNIENPENQSE
notes: Two copies stand in the holoenzyme; also called Rco1 I; Rco1 II
B2: Rpd3 (enzyme, yeast, UniProt P32561 1-433, looked up)
chain: MVYEATPFDPITVKPSDKRRVAYFYDADVGNYAYGAGHPMKPHRIRMAHSLIMNYGLYKKMEIYRAKPATKQEMCQFHTDEYIDFLSRVTPDNLEMFKRESVKFNVGDDCPVFDGLYEYCSISGGGSMEGAARLNRGKCDVAVNYAGGLHHAKKSEASGFCYLNDIVLGIIELLRYHPRVLYIDIDVHHGDGVEEAFYTTDRVMTCSFHKYGEFFPGTGELRDIGVGAGKNYAVNVPLRDGIDDATYRSVFEPVIKKIMEWYQPSAVVLQCGGDSLSGDRLGCFNLSMEGHANCVNYVKSFGIPMMVVGGGGYTMRNVARTWCFETGLLNNVVLDKDLPYNEYYEYYGPDYKLSVRPSNMFNVNTPEYLDKVMTNIFANLENTKYAPSVQLNHTPRDAEDLGDVEEDSAEAKDTKGGSQYARDLHVEHDNEFY
notes: Rpd3, yeast class I histone deacetylase, endogenous catalytic subunit of Rpd3S; Subunit of the endogenous holoenzyme; also called Rpd3/HDAC

Columns and labels:
Test in all cases: cryo-EM structure; endogenous Rpd3S incubated with an excess of H3Kc36me3 mononucleosome (70-bp DNA link at one end), fractionated by gel filtration, concentrated, no cross-linking; 3.7 Å
[1] = biological target: B1; settings: both partners purified
[2] = biological target: B2; settings: both partners purified
[3] = biological target: T1, Sin3 (yeast, UniProt P22579 1-1536); settings: both partners purified
T1 construct: Sin3, yeast, endogenous scaffold subunit of Rpd3S

[4] = biological target: the molecule itself

T1 sequence (P22579 whole entry): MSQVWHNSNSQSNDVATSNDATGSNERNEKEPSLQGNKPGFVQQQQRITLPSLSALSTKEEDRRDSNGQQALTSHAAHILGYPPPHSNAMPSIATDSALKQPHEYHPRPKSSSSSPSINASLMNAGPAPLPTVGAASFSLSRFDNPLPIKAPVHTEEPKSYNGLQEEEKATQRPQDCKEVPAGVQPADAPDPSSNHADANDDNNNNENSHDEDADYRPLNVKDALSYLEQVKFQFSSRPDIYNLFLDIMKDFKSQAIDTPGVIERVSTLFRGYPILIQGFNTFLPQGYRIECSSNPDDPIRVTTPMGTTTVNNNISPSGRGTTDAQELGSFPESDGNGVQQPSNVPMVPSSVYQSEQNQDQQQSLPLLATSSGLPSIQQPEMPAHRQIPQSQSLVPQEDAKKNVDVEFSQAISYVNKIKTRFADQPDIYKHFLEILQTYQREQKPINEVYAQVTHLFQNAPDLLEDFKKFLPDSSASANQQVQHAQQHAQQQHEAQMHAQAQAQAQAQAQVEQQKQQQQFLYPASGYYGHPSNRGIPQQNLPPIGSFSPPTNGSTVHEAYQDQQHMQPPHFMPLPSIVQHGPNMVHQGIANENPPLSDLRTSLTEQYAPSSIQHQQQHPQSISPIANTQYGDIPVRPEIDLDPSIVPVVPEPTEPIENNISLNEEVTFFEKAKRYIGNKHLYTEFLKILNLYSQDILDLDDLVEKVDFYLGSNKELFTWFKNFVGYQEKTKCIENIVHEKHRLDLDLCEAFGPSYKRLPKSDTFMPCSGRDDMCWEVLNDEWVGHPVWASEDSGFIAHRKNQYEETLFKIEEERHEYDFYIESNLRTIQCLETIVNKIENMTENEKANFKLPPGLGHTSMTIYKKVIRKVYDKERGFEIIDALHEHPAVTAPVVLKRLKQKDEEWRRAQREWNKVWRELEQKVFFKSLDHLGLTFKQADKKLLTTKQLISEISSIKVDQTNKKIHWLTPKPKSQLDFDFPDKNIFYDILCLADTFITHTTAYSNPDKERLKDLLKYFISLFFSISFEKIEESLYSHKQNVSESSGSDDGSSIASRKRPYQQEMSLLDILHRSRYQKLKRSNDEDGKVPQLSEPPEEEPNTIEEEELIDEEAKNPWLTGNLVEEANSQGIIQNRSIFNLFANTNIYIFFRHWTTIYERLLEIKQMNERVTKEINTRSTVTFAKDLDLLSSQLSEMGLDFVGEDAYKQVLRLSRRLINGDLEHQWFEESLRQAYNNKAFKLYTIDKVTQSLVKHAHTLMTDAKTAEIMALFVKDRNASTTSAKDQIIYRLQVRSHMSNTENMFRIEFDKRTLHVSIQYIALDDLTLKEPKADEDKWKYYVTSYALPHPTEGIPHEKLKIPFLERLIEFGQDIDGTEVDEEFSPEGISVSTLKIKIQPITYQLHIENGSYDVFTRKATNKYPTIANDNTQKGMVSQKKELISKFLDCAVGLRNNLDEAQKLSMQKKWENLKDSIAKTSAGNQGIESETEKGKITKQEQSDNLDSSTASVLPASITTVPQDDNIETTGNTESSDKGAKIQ

Binder	binding result [1]	binding result [2]	binding result [3]	stoichiometry N [4]
Eaf3 (natural protein, yeast, UniProt Q12432 1-401, looked up, Two copies stand in the holoenzyme; also called Eaf3 I; Eaf3 II) MVDLEQEFALGGRCLAFHGPLMYEAKILKIWDPSSKMYTSIPNDKPGGSSQATKEIKPQKLGEDESIPEEIINGKCFFIHYQGWKSSWDEWVGYDRIRAYNEENIAMKKRLANEAKEAKKSLLEQQKKKKLSTSLGGPSNGGKRKGDSRSNASISKSTSQSFLTSSVSGRKSGRSSANSLHPGSSLRSSSDQNGNDDRRRSSSLSPNMLHHIAGYPTPKISLQIPIKLKSVLVDDWEYVTKDKKICRLPADVTVEMVLNKYEHEVSQELESPGSQSQLSEYCAGLKLYFDKCLGNMLLYRLERLQYDELLKKSSKDQKPLVPIRIYGAIHLLRLISVLPELISSTTMDLQSCQLLIKQTEDFLVWLLMHVDEYFNDKDPNRSDDALYVNTSSQYEGVALGM	binds	binds	binds	–
B1	–	–	binds	2
B2	binds	–	binds	–
